Results as given in patent US20210057047A1, “IN-SILICO METHOD FOR DESIGNING A (D)-POLYPEPTIDE LIGAND” (THE GOVERNING COUNCIL OF THE UNIVERSITY OF TORONTO, priority 2018, published 2021).
Where two headings read alike, the source gives them in different places. Square brackets hold non-standard residues; d marks the D form. Ends that are not written are not given here. Peptide text beside a SMILES is read from it.

Legend:
Proteinase K (ProtK) = biological target: T1, Proteinase K (ProtK) (Parengyodontium album, UniProt P06873); test: in vitro; format: in vitro ADME
T1 construct: purchased Bioshop
T1 sequence (P06873 106-384): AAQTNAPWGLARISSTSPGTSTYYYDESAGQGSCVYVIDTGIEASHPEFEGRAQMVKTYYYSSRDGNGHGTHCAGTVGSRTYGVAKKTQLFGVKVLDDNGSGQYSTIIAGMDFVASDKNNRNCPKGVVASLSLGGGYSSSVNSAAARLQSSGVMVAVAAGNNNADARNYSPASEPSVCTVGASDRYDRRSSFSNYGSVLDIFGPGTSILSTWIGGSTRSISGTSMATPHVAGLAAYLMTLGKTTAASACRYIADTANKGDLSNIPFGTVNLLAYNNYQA
Method: Stocks of 20 μM peptide in 200 μL total volume (10 mM Tris-base, 10 mM NaCl, pH 7.4) were supplemented with 5 μM CaCl2) and 30 uL removed for the untreated T0 sample. Proteinase K (ProtK, Bioshop) was then added to a final concentration of 100 μg/mL. Samples were incubated at 37° C. and 30 μL removed after each time point and protease activity blocked by the addition of 10 mM PMSF (200 mM stock dissolved in isopropanol). Protease inactivated samples were frozen at −20° C. until further use. Digestions were repeated three times. Frozen samples were supplemented with 8 μL sample loading buffer (4× NuPAGE, ThermoFisher Scientific), boiled ([…]) for 10 minutes, and centrifuged (12 000 rpm, 10 min) prior to loading the gel (12% NuPAGE Bis-Tris (ThermoFisher Scientific) with MES running buffer). Gels were run at 200 V for […] and stained using Coomassie Brilliant Blue dye. Densitometry of bands was determined using ImageJ software (40) with back ground subtraction. All samples were normalized to their respective untreated sample (T0).

[1] = biological target: T2, parathyroid receptor (PTH1R) (Homo sapiens, UniProt Q03431); test: CRE-luciferase reporter assay in HEK293 cells stably expressing PTH1R; format: cell-based
T2 construct: expressed in transfected cells; host or cells: HEK293
T2 sequence (Q03431 27-593): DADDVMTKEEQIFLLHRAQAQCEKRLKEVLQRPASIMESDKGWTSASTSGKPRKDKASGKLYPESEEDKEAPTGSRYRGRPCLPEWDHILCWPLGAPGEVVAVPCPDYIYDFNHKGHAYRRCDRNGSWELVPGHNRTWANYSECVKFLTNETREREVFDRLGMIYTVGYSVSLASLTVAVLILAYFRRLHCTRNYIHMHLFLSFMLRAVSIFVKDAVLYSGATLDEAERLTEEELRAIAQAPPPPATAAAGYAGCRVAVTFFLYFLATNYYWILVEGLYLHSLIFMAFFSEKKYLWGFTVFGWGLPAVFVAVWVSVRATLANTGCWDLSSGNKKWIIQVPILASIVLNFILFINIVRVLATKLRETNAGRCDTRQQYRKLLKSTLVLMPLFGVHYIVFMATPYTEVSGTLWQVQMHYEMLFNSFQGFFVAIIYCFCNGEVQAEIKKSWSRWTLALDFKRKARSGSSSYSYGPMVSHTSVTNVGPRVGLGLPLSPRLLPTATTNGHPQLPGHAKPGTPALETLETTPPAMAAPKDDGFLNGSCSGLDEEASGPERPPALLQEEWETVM
Method: This activates protein kinase A (PKA) to phosphorylate and activate cAMP response element-binding protein (CREB). […] All of the (L)-PTH is degraded in under 1 hr, while more than 85% of the (D)-analog is still detectable at 6 hours.
(a) (L)-PTH structure and sequence with hotspots highlighted in grey and junctions in black. (b) (D)-PDB match structures and sequences. (c) Final (D)-PTH construction from match sequences and RI (d) HEK293 cells stably expressing PTH1R and CRE-luciferase were stimulated with different concentrations of (L)-, (D)-PTH peptides and Forskolin. Luciferase activity was measured. The experiments were performed in triplicate. (e) Sample gel images of (L)- and (D)-PTH peptides treated with Proteinase K (ProtK) over 5 hours. Gels were stained with Coomassie Brilliant Blue dye and band densitometry calculated using ImageJ (40) with background subtraction. (f) Quantification of remaining peptide post ProtK treatment in […] intervals. Intensity of peptide bands were normalized to the intensity of the untreated peptide (T0) and converted to a percentage relative to T0. […] Error bars are reporting standard error. Data represent the average of 3 independent experiments.

[2] = FDA approved peptide drugs, Table 1; cited from earlier work
pCDNA3.1 HEK293 cells = test: CRE-luciferase reporter assay in control pCDNA3.1 HEK293 cells; format: cell-based; settings: pCDNA3.1 HEK293 cells without GLP1 receptor
GLP1 receptor (GLP1R) = GLP1 receptor (GLP1R) (human, UniProt P43220 24-463); test: cell-based or functional assay

In the case of “(L)-GLP-2: native GLP-2, gastrointestinal peptide”, the “time until all peptide is degraded” value (Proteinase K (ProtK); exposure to ProtK, 37° C.) is reported as “about 1 hr” and the “degradation by ProtK (in words)” value (Proteinase K (ProtK); treatment with ProtK over 5 hours) is reported as “rapid degradation”.

For `CC[C@@H](C)[C@@H](NC(=O)[C@@H](CCC(=O)O)NC(=O)[C@@H](CCCNC(=N)N)NC(=O)[C@@H](CCSC)NC(=O)[C@@H](CC(C)C)NC(=O)[C@@H](CC(=O)O)NC(=O)CNC(=O)[C@@H](CCCCN)NC(=O)[C@@H](Cc1c[nH]cn1)NC(=O)[C@@H](CC(N)=O)NC(=O)[C@@H](CCCNC(=N)N)NC(=O)[C@@H](Cc1c[nH]c2ccccc12)NC(=O)[C@@H](CCC(=O)O)NC(=O)[C@H]1CCCN1C(=O)[C@@H](CC(C)C)NC(=O)[C@@H](Cc1ccc(O)cc1)NC(=O)[C@@H](CCSC)NC(=O)[C@@H](CC(C)C)NC(=O)[C@@H](CC(C)C)NC(=O)[C@@H](CCSC)NC(=O)CNC(=O)[C@H](NC(=O)[C@@H](CO)NC(=O)[C@@H](CC(=O)O)NC(=O)[C@@H](C)NC(=O)[C@H](NC(=O)[C@@H](C)NC(=O)[C@@H](CC(C)C)NC(=O)CNC(=O)[C@@H](C)N)C(C)C)C(C)C)C(=O)N[C@H](CCCNC(=N)N)C(=O)N[C@H](CO)C(=O)N[C@H](CCCNC(=N)N)C(=O)N[C@H](CCCCN)C(=O)N[C@@H](C(=O)N[C@H](CO)C(=O)O)C(C)C` [(D)-PTH] (H-[dA]G[dL][dA][dV][dA][dD][dS][dV]G[dM][dL][dL][dM][dY][dL][dP][dE][dW][dR][dN][dH][dK]G[dD][dL][dM][dR][dE][dI][dR][dS][dR][dK][dV][dS]-OH; N-terminus and C-terminus assumed), the “activation of PTH1R, potency and efficacy (in words)” value [1] was “potency and efficacy comparable to (L)-PTH and Forskolin” and the “degradation by ProtK (in words)” value (Proteinase K (ProtK)) was “persists after 5 hours”.

In the case of “Thymosin (Ac-SDAAVDTSSEITTKDLKEKKEVVEEAEN; UniProt P06454 2-29, looked up) [FDA approved peptide drug, hepatitis, cancer]”, the t½ [2] is listed as 2 h.

With `CC[C@H](C)[C@H](NC(=O)[C@H](Cc1ccccc1)NC(=O)[C@H](CCC(=O)O)NC(=O)[C@H](CCCCN)NC(=O)[C@H](C)NC(=O)[C@H](C)NC(=O)[C@H](CCC(N)=O)NC(=O)CNC(=O)[C@H](CCC(=O)O)NC(=O)[C@H](CC(C)C)NC(=O)[C@H](Cc1ccc(O)cc1)NC(=O)[C@H](CO)NC(=O)[C@H](CO)NC(=O)[C@@H](NC(=O)[C@H](CC(=O)O)NC(=O)[C@H](CO)NC(=O)[C@@H](NC(=O)[C@H](Cc1ccccc1)NC(=O)[C@@H](NC(=O)CNC(=O)[C@H](CCC(=O)O)NC(=O)[C@H](C)NC(=O)[C@@H](N)Cc1c[nH]cn1)[C@@H](C)O)[C@@H](C)O)C(C)C)C(=O)N[C@@H](C)C(=O)N[C@@H](Cc1c[nH]c2ccccc12)C(=O)N[C@@H](CC(C)C)C(=O)N[C@H](C(=O)N[C@@H](CCCCN)C(=O)NCC(=O)N[C@@H](CCCNC(=N)N)C(=O)O)C(C)C` [(L)-GLP1] the “luciferase expression (in words)” value (pCDNA3.1 HEK293 cells) was “inactive”.

For `CC(C)C[C@H](NC(=O)[C@H](CCCCN)NC(=O)CNC(=O)[C@H](CC(C)C)NC(=O)[C@@H](NC(=O)[C@@H]1CSSC[C@H](N)C(=O)N[C@@H](CO)C(=O)N[C@@H](CC(N)=O)C(=O)N[C@@H](CC(C)C)C(=O)N[C@@H](CO)C(=O)N[C@@H]([C@@H](C)O)C(=O)N1)C(C)C)C(=O)N[C@@H](CO)C(=O)N[C@@H](CCC(N)=O)C(=O)N[C@@H](CCC(=O)O)C(=O)N[C@@H](CC(C)C)C(=O)N[C@@H](Cc1c[nH]cn1)C(=O)N[C@@H](CCCCN)C(=O)N[C@@H](CC(C)C)C(=O)N[C@@H](CCC(N)=O)C(=O)N[C@H](C(=O)N[C@@H](Cc1ccc(O)cc1)C(=O)N1CCC[C@H]1C(=O)N[C@@H](CCCNC(=N)N)C(=O)N[C@H](C(=O)N[C@@H](CC(N)=O)C(=O)N[C@H](C(=O)NCC(=O)N[C@@H](CO)C(=O)NCC(=O)N[C@H](C(=O)N1CCC[C@H]1C(N)=O)[C@@H](C)O)[C@@H](C)O)[C@@H](C)O)[C@@H](C)O` [Calcitonin], the t½ [2] is listed as 0.967 h.

For “(L)-PTH: native parathyroid hormone, residues 1-34”, the “degradation by ProtK (in words)” value (Proteinase K (ProtK)) was “rapid degradation” and the “time until all peptide is degraded” value (Proteinase K (ProtK)) was “under 1 hr”.

For `CC[C@H](C)[C@H](NC(=O)[C@H](Cc1ccccc1)NC(=O)[C@H](CC(=O)O)NC(=O)[C@H](CCCNC(=N)N)NC(=O)[C@H](C)NC(=O)[C@H](C)NC(=O)[C@H](CC(C)C)NC(=O)[C@H](CC(N)=O)NC(=O)[C@H](CC(=O)O)NC(=O)[C@H](CC(C)C)NC(=O)[C@@H](NC(=O)[C@@H](NC(=O)[C@H](CC(N)=O)NC(=O)[C@H](CCSC)NC(=O)[C@H](CCC(=O)O)NC(=O)[C@H](CC(=O)O)NC(=O)[C@H](CO)NC(=O)[C@H](Cc1ccccc1)NC(=O)[C@H](CO)NC(=O)CNC(=O)[C@H](CC(=O)O)NC(=O)CNC(=O)[C@@H](N)Cc1c[nH]cn1)[C@@H](C)O)[C@@H](C)CC)C(=O)N[C@@H](CC(N)=O)C(=O)N[C@@H](Cc1c[nH]c2ccccc12)C(=O)N[C@@H](CC(C)C)C(=O)N[C@H](C(=O)N[C@@H](CCC(N)=O)C(=O)N[C@H](C(=O)N[C@@H](CCCCN)C(=O)N[C@H](C(=O)N[C@H](C(=O)N[C@@H](CC(=O)O)C(=O)O)[C@@H](C)O)[C@@H](C)CC)[C@@H](C)O)[C@@H](C)CC` [Teduglutide], the t½ [2] is given as 1.33 h.

In the case of `CC[C@@H](C)[C@@H](NC(=O)[C@@H](C)NC(=O)[C@@H](CCC(=O)O)NC(=O)[C@H](NC(=O)[C@@H](CC(C)C)NC(=O)[C@@H](CCC(=O)O)NC(=O)CNC(=O)[C@@H](C)NC(=O)[C@@H](C)NC(=O)[C@@H](CC(C)C)NC(=O)[C@H](NC(=O)[C@@H](Cc1ccccc1)NC(=O)[C@@H](CC(C)C)NC(=O)[C@@H](CCC(=O)O)NC(=O)[C@@H](CC(C)C)NC(=O)[C@@H](Cc1ccccc1)NC(=O)[C@@H](C)NC(=O)[C@@H](CCCCN)NC(=O)CNC(=O)[C@H](N)CCCNC(=N)N)[C@H](C)CC)[C@H](C)CC)C(=O)N[C@H](CC(=O)O)C(=O)N[C@H](CCCNC(=N)N)C(=O)N[C@@H](C(=O)N[C@H](Cc1ccccc1)C(=O)N[C@@H](C(=O)NCC(=O)N[C@H](CCC(=O)O)C(=O)N[C@H](C)C(=O)N[C@H](Cc1c[nH]cn1)C(=O)O)[C@H](C)O)[C@H](C)O` [(D)-GLP1] (H-[dR]G[dK][dA][dF][dL][dE][dL][dF][dI][dL][dA][dA]G[dE][dL][dI][dE][dA][dI][dD][dR][dT][dF][dT]G[dE][dA][dH]-OH; N-terminus and C-terminus assumed), the “degradation by ProtK (in words)” value (Proteinase K (ProtK)) is reported as “persists after 5 hours”.

In the case of Sermorelin, the t½ [2] is listed as 0.2 h.

In the case of Glucagon, the t½ [2] is given as 0.25 h.

In the case of Parathyroid Hormone, the t½ [2] is given as 3 h.

In the case of [dR]G[dK][dA][dF][dL][dE][dL][dF][dI][dL][dA][dA]G[dE][dL][dI][dE][dA][dI][dD][dR][dT][dF][dT]G[dE][dA][dH] (designed binder) [(D)-GLP1 peptide], the “EC50, CRE-luciferase expression” value (GLP1 receptor (GLP1R)) is reported as 2200 nM and the “potency relative to the native peptide” value (GLP1 receptor (GLP1R)) is reported as roughly 40 fold lower.
